In article doi:10.1101/725622 (bioRxiv, 2019):

Target: V2R-bound βarr1 in HEK-293 cells (V2R: Homo sapiens; βarr1: Rattus …, UniProt P30518;P29066)
Assay: co-IP

B1: Ib30 (HA-tagged intrabody version of Fab30) (scFv, V domains shown)
VH: EVQLVESGGGLVQPGGSLRLSCAASGFNVYSSSIHWVRQAPGKGLEWVASISSYYGYTYYADSVKGRFTISADTSKNTAYLQMNSLRAEDTAVYYCARSRQFWYSGLDYWGQGTLVTVSS
VL: DIQMTQSPSSLSASVGDRVTITCRASQSVSSAVAWYQQKPGKAPKLLIYSASSLYSGVPSRFSGSRSGTDFTLTISSLQPEDFATYYCQQYKYVPVTFGQGTKVEIK
  binding result: binds
